Values joined by “and” are separate entries in the source; they are usually repeats but may differ in a detail not shown here. Identical values can stand only once.
Columns and labels:
[1] = target: Getah virus capsid protein (Getah virus (GETV), strain SC483); assay: cryo-EM structure
[2] = target: Getah virus envelope glycoprotein E2 (Getah virus (GETV), strain SC483); assay: cryo-EM structure

Substance	stoichiometry N [1]	stoichiometry N [2]
Getah virus capsid protein (natural protein)	6 and 5	–
Getah virus envelope glycoprotein E2 (natural protein)	–	3

From publication PMC8876998
